Assay results as given in the RNAGym collection of RNA variant scans (doi:10.1093/nar/gkz1192).

B1: CPEB3 Ribozyme (parent)
chain: UAACAGGGGGCCACAGCAGAAGCGUUCACGUCGCAGCCCCUGUCAGAUUCUGGUGAAUCUGCGAAUUCUGCUGUAUAUCUC

Variants of: B1
Assay: self-cleavage, relative activity (ratio to wild type); higher = more cleavage; in vitro, sequencing
Summary of the method: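 Libraries of CPEB3 self-cleaving ribozyme mutants came from rounds of error-prone PCR and carried barcodes, which DNA sequencing matched to variants. In vitro transcription used T7 RNA polymerase at 37°C for 5 hours, with a further 15 min in DNase I before EDTA stopped the reaction; the ribozymes cleaved during both steps. The RNA was reverse transcribed with template switching and sequenced on Illumina. Relative activity is the cleaved/total read fraction of a variant divided by that of the unmutated ribozyme, averaged over three batches with at least 5 reads.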

Row | Variant | self-cleavage
1 | UAACAGGGGGCCACAGCAGAAGCGUUCACGCCGCAGCCCCUGUCAGAUUCUGGUGAAUCUGCGAAUUCUCCUGUAUAUCUC | 0.18
2 | UAACAGGGGGCCACAGCAGAAGCGUUCACGCCGCAGCCCCUGUCAGAUUCUGGUGAAUCUGCGAAUUCUACUGUAUAUCUC | 0.25
3 | UAACAGGGGGCCACAGCAGAAGCGUUCACGCCGCAGCCCCUGUCAGAUUCUGGUGAAUCUGCAAAUUCUGCUGUAUAUCUC | 0.67
4 | UAACAGGGGGCCACAGCAGAAGCGUUCACGCCGCAGCCCCUGUCAGAUUCUGGUGAAUCUGCUAAUUCUGCUGUAUAUCUC | 0.8
5 | UAACAGGGGGCCACAGCAGAAGCGUUCACGCCGCAUCCCCUGUCAGAUUCUGGUGAAUCUGCGAAUUCUGCUGUAUAUCUC | 0.14
6 | UAACAGGGGGCCACAGCAGAAGCGUUCACGCCGCAACCCCUGUCAGAUUCUGGUGAAUCUGCGAAUUCUGCUGUAUAUCUC | 0.13
7 | UAACAGGGGGCCACAGCAGAAGCGUUCACGCCGCAGCCCCUGUCAGAUUCUGGUGAAUCUGCGAAUUAUGCUGUAUAUCUC | 0.28
8 | UAACAGGGGGCCACAGCAGAAGCGUUCACGCCGCAGCCCCUGUCAGAUUCUGGUGAAUCUGCGAAUUUUGCUGUAUAUCUC | 0.75
9 | UAACAGGGGGCCACAGCAGAAGCGUUCACGCCGCAGCCCCUGUCAGAUUUUGGUGAAUCUGCGAAUUCUGCUGUAUAUCUC | 0.82
10 | UAACAGGGGGCCACAGCAGAAGCGUUCACGCCGCAGCCCCUGUCAGAUUCUGGUGAAUCUGCGAAUUCUGCUAUAUAUCUC | 1.26
11 | UAACAGGGGGCCACAGCAGAAGCGUUCACGCCGCAGCCCCUGUCAGAUUCUGUUGAAUCUGCGAAUUCUGCUGUAUAUCUC | 1.06
12 | UAACAGGGGGCCACAGCAGAAGCGUUCACGCCGCAGCCCCUGUCAGAUUCUGAUGAAUCUGCGAAUUCUGCUGUAUAUCUC | 0.91
13 | UAACAGGGGGCCACAGCAGAAGCGUUCACGCCGCAGCCCCUGUCAGAUUCUAGUGAAUCUGCGAAUUCUGCUGUAUAUCUC | 1.06
14 | UAACAGGGGGCCACAGCAGAAGCGUUCACGCCGCAGCCCCUGUCAGAUUCUCGUGAAUCUGCGAAUUCUGCUGUAUAUCUC | 1.14
15 | UAACAGGGGGCCACAGCAGAAGCGUUCACGCCGCAGCCCCUGUCAGAUUCUGGUGAAUCUGAGAAUUCUGCUGUAUAUCUC | 0.23
16 | UAACAGGGGGCCACAGCAGAAGCGUUCACGCCGCAGCCCCUGUCAGAUUCUGGUGAAUCUGGGAAUUCUGCUGUAUAUCUC | 0.14
17 | UAACAGGGGGCCACAGCAGAAGCGUUCACGCCGCAGCCCCUGUCAGAUUCUGGUGAAUCUGUGAAUUCUGCUGUAUAUCUC | 0.24

Row | Variant | self-cleavage
18 | UAACAGGGGGCCACAGCAGAAGCGUUCACGCCGCAGCCCCAGUCAGAUUCUGGUGAAUCUGCGAAUUCUGCUGUAUAUCUC | 0.29
19 | UAACAGGGGGCCACAGCAGAAGCGUUCACGCCGCAGCCCCUGUCAGAUUCUGGUGAAUCUGCGAAUUCUGCUGUAUAUCUG | 0.55
20 | UAACAGGGGGCCACAGCAGAAGCGUUCACGCCGCAGCCCCUGUCAGAUUCUGGUGAAUCUGCGAAUUCUGCUGUAUAUCUU | 1.14
21 | UAACAGGGGGCCACAGCAGAAGCGUUCACGCCGCAGCCCCUGUCAGAUUCUGGUGAAUUUGCGAAUUCUGCUGUAUAUCUC | 0.54
22 | UAACAGGGGGCCACAGCAGAAGCGUUCACGCCGCAGCCCCUGUCAGAUUCUGGUGAAUAUGCGAAUUCUGCUGUAUAUCUC | 0.29
23 | UAACAGGGGGCCACAGCAGAAGCGUUCACGCCGCAGCCCCUAUCAGAUUCUGGUGAAUCUGCGAAUUCUGCUGUAUAUCUC | 0.35
24 | UAACAGGGGGCCACAGCAGAAGCGUUCACGCCGCAGCCCCUUUCAGAUUCUGGUGAAUCUGCGAAUUCUGCUGUAUAUCUC | 0.13
25 | UAACAGGGGGCCACAGCAGAAGCGUUCACGCCGCAGCCCCUGUCAGAUUCUGGUGAAUCUGCGAAUUCUGGUGUAUAUCUC | 0.23
26 | UAACAGGGGGCCACAGCAGAAGCGUUCACGCCGCAGCCCCUGUCAGAUUCUGGUGAAUCUGCGAAUUCUGUUGUAUAUCUC | 0.25
27 | UAACAGGGGGCCACAGCAGAAGCGUUCACGCCGCAGCCCCUGUCAAAUUCUGGUGAAUCUGCGAAUUCUGCUGUAUAUCUC | 0.15
28 | UAACAGGGGGCCACAGCAGAAGCGUUCACGCCGCAGCCCCUGUCAUAUUCUGGUGAAUCUGCGAAUUCUGCUGUAUAUCUC | 0.23
29 | UAACAGGGGGCCACAGCAGAAGCGUUCACGCCGCAGCCCCUGUCAGAUUCUGGUUAAUCUGCGAAUUCUGCUGUAUAUCUC | 0.76
30 | UAACAGGGGGCCACAGCAGAAGCGUUCACGCCGCAGCCCCUGUCAGAUUCUGGUAAAUCUGCGAAUUCUGCUGUAUAUCUC | 0.78
31 | UAACAGGGGGCCACAGCAGAAGCGUUCACGCCACAGCCCCUGUCAGAUUCUGGUGAAUCUGCGAAUUCUGCUGUAUAUCUC | 0.21
32 | UAACAGGGGGCCACAGCAGAAGCGUUCACGCCGCAGCCCCUGUCAGAUUCUGGUGAAUCUCCGAAUUCUGCUGUAUAUCUC | 0.14
33 | UAACAGGGGGCCACAGCAGAAGCGUUCACGCCGCAGCCCCUGUCAGAUUCUGGUGAAUCUGCGAAUUCUGCUGUAUAUUUC | 1.1
34 | UAACAGGGGGCCACAGCAGAAGCGUUCACGCCGCAGCCCCUGUCAGAUUCUGGUGAAUCUGCGAAUUCUGCUGUAUAUAUC | 0.94
